Paper PMC10705692

What was measured:
[1] = whole-cell patch clamp, HEK293T, 10 s domoate; settings: glycan lost; control: GluK2 WT
[2] = paired-pulse whole-cell patch clamp, tau recovery; settings: glycan lost; control: GluK2 WT
[3] = whole-cell patch clamp, HEK293T, tau desensitization; settings: glycan lost
[4] = whole-cell patch clamp, 3 ms glutamate, tau deactivation; settings: glycan lost

B1: GluK2 KAR: T277A (protein)
parent chain: MKIISPVLSNLVFSRSIKVLLCLLWIGYSQGTTHVLRFGGIFEYVESGPMGAEELAFRFAVNTINRNRTLLPNTTLTYDTQKINLYDSFEASKKACDQLSLGVAAIFGPSHSSSANAVQSICNALGVPHIQTRWKHQVSDNKDSFYVSLYPDFSSLSRAILDLVQFFKWKTVTVVYDDSTGLIRLQELIKAPSRYNLRLKIRQLPADTKDAKPLLKEMKRGKEFHVIFDCSHEMAAGILKQALAMGMMTEYYHYIFTTLDLFALDVEPYRYSGVNMTGFRILNTENTQVSSIIEKWSMERLQAPPKPDSGLLDGFMTTDAALMYDAVHVVSVAVQQFPQMTVSSLQCNRHKPWRFGTRFMSLIKEAHWEGLTGRITFNKTNGLRTDFDLDVISLKEEGLEKIGTWDPASGLNMTESQKGKPANITDSLSNRSLIVTTILEEPYVLFKKSDKPLYGNDRFEGYCIDLLRELSTILGFTYEIRLVEDGKYGAQDDVNGQWNGMVRELIDHKADLAVAPLAITYVREKVIDFSKPFMTLGISILYRKPNGTNPGVFSFLNPLSPDIWMYILLAYLGVSCVLFVIARFSPYEWYNPHPCNPDSDVVENNFTLLNSFWFGVGALMQQGSELMPKALSTRIVGGIWWFFTLIIISSYTANLAAFLTVERMESPIDSADDLAKQTKIEYGAVEDGATMTFFKKSKISTYDKMWAFMSSRRQSVLVKSNEEGIQRVLTSDYAFLMESTTIEFVTQRNCNLTQIGGLIDSKGYGVGTPMGSPYRDKITIAILQLQEEGKLHMMKEKWWRGNGCPEEESKEASALGVQNIGGIFIVLAAGLVLSVFVAVGEFLYKSKKNAQLEKRSFCSAMVEELRMSLKCQRRLKHKPQAPVIVKTEEVINMHTFNDRRLPGKETMA
increases: other: desensitization rate [1] | other: rate of recovery from desensitization [2] | other: desensitization rate ([3]; control: GluK2 WT) | other: deactivation rate ([4]; control: GluK2 WT)

B2: GluK2 KAR: T277A/R775A (protein)
parent chain: MKIISPVLSNLVFSRSIKVLLCLLWIGYSQGTTHVLRFGGIFEYVESGPMGAEELAFRFAVNTINRNRTLLPNTTLTYDTQKINLYDSFEASKKACDQLSLGVAAIFGPSHSSSANAVQSICNALGVPHIQTRWKHQVSDNKDSFYVSLYPDFSSLSRAILDLVQFFKWKTVTVVYDDSTGLIRLQELIKAPSRYNLRLKIRQLPADTKDAKPLLKEMKRGKEFHVIFDCSHEMAAGILKQALAMGMMTEYYHYIFTTLDLFALDVEPYRYSGVNMTGFRILNTENTQVSSIIEKWSMERLQAPPKPDSGLLDGFMTTDAALMYDAVHVVSVAVQQFPQMTVSSLQCNRHKPWRFGTRFMSLIKEAHWEGLTGRITFNKTNGLRTDFDLDVISLKEEGLEKIGTWDPASGLNMTESQKGKPANITDSLSNRSLIVTTILEEPYVLFKKSDKPLYGNDRFEGYCIDLLRELSTILGFTYEIRLVEDGKYGAQDDVNGQWNGMVRELIDHKADLAVAPLAITYVREKVIDFSKPFMTLGISILYRKPNGTNPGVFSFLNPLSPDIWMYILLAYLGVSCVLFVIARFSPYEWYNPHPCNPDSDVVENNFTLLNSFWFGVGALMQQGSELMPKALSTRIVGGIWWFFTLIIISSYTANLAAFLTVERMESPIDSADDLAKQTKIEYGAVEDGATMTFFKKSKISTYDKMWAFMSSRRQSVLVKSNEEGIQRVLTSDYAFLMESTTIEFVTQRNCNLTQIGGLIDSKGYGVGTPMGSPYADKITIAILQLQEEGKLHMMKEKWWRGNGCPEEESKEASALGVQNIGGIFIVLAAGLVLSVFVAVGEFLYKSKKNAQLEKRSFCSAMVEELRMSLKCQRRLKHKPQAPVIVKTEEVINMHTFNDRRLPGKETMA
increases: other: desensitization rate ([3]; control: R775A) | other: deactivation rate ([4]; control: R775A)
